Data reported in patent US20240384250A1, “FIBROBLAST GROWTH FACTOR 23 MODULATING COMPOUNDS” (THE UAB RESEARCH FOUNDATION, priority 2021, published 2024).
Entries after “also recorded” stand apart in the source; their conditions may differ.

Legend:
FGF2 binding to FGFR1c = target: T1, FGF2 binding to FGFR1c (Homo sapiens, UniProt P11362); experiment: Plate-based binding of paracrine FGF to Fc-FGFR1c with heparin and/or sKL; conditions: Fc-FGFR1c preincubated with FLAG-sKL, absence and presence of heparin
T1 construct: a chimeric protein consisting of the FGFR1 ectodomain and the Fc region of a human IgG; purchased R&D Systems 233-FB/CF; 658FR050
T1 sequence (P11362 22-376 limits assumed): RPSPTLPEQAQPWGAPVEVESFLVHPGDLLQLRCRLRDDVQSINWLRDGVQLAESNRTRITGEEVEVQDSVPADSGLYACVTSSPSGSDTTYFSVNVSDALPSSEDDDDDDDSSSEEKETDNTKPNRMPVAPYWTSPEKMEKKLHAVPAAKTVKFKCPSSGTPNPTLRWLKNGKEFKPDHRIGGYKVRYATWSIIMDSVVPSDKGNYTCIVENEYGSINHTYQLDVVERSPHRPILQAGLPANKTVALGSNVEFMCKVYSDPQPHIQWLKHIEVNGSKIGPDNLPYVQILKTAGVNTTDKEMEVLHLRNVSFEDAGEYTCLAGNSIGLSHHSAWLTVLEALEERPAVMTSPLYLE
Description: (§1) Proteins were coated on 96-well plates (MaxiSorp; 439454, Thermo Fisher Scientific), and proteins were added to wells in 100 μl of enzyme-linked immunosorbent assay (ELISA) coating buffer (E107, Bethyl Laboratories) with a lid placed overtop and incubated at 4° C. overnight. Plates were washed 5× with 350 μl of assay buffer (50 mM Tris [pH 7.4], 200 mM NaCl, 0.01% Tween 20) on a 50 TS microplate washer (BioTek). Plates were blocked for 1 hour in 200 μl of assay buffer with 0.5% BSA. Plates were washed as before, and proteins were incubated on plates in 100 μl of assay buffer with 0.5% BSA. Proteins or heparin was incubated in orders described in the respective figure legends. Assays using FLAG-tag-based detection were incubated with anti-FLAG coupled to HRP at 1:20,000, and assays using Fc detection were incubated with anti-human Fc coupled to HRP at 1:10,000. Plates were washed as above, and 100 μl of 3,3′,5,5′-tetramethylbenzidine (TMB) substrate (E102, Bethyl Laboratories) was added for 15 to 20 minutes until positive wells developed a dark blue color. Reactions were stopped with ELISA stop solution (E115, Bethyl Laboratories) and analyzed using the Synergy HI plate reader (BioTek) at 450 nm wavelength. […] As a control to remove background absorbance values, wells were coated with an equal amount of BSA to match the amount of protein coated in experimental wells and treated the same as experimental wells. To study the effects of sKL on the binding between paracrine FGFs and FGFRs, plates were run as above except coated with paracrine FGFs. Fc-FGFR1 was preincubated with sKL or vehicle for 60 minutes, and then the combination was added to wells and the assay was run as before.

FGF8b binding to FGFR1c = target: T2, FGF8b binding to FGFR1c (Homo sapiens, UniProt P11362); experiment: as above; conditions: Fc-FGFR1c preincubated with 400 ng FLAG-sKL
T2 construct: a chimeric protein consisting of the FGFR1 ectodomain and the Fc region of a human IgG; purchased R&D Systems 423-F8/CF; 658FR050
T2 sequence (P11362 22-376 limits assumed): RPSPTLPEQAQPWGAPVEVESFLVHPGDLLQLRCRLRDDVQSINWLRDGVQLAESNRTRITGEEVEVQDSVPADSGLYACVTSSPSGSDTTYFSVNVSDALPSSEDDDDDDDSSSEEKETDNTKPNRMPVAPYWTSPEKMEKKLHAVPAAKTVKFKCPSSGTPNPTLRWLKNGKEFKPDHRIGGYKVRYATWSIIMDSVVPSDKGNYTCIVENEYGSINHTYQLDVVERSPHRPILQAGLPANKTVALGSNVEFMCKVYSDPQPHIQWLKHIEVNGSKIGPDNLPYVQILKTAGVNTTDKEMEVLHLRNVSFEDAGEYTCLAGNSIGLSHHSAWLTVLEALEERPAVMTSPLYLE
Description: as §1

[1] = Half-life of recombinant sKL in the circulation of rats; assay type: in vivo, rat; conditions: tail vein injection 100 μg/kg
Description: To determine the half-life of recombinant sKL protein in the circulation, rats were injected with the Strep-tagged mouse sKL that was purified as described above. Each group consisted of 3 male Sprague Dawley rats (9 weeks of age and weighing approximately 300 g). For injections and bleeding, rats were anesthetized with 2.5% isoflurane. For injections, a shielded i.v. catheter (BD Insyte Autoguard 0.7×19 mm, catalog no. 381412) was inserted into the lateral tail vein and flushed with 100 μl of isotonic saline (0.9%). One milliliter of purified sKL protein dissolved in isotonic saline (100 μg/kg) or isotonic saline was then injected, and the catheter was flushed again with 100 μl of isotonic saline. For bleeding, a shielded i.v. catheter was inserted into the lateral tail vein. Blood samples (300 μl) were taken after 1, 3, 5, 10, 15, 30, and 60 minutes as well as 3, 6, 12, and 48 hours. For collections from 15 minutes to 48 hours postinjection, a separate i.v. catheter was inserted each time to draw blood. For collections from 1 to 15 minutes post-sKL injection, the same i.v. catheter was used, and to exclude contamination with the previous draw, the catheter was flushed with isotonic saline between each sample. […] Serum was then aliquoted and stored at approximately […] before analysis. For the sKL activity assay, wells were coated with 500 ng of mouse FGF23 in 100 μl of coating buffer (E107, Bethyl Laboratories) at 4° C. overnight. Plates were washed 5× at 350 μl of assay buffer (50 mM Tris, [pH 7.4] 200 mM NaCl, 0.01% Tween 20) on a 50 TS microplate washer (BioTek). Plates were blocked for 1 hour in 200 μl of assay buffer with 0.5% BSA. Plates were washed and incubated with 30 μl per well and 70 μl of assay buffer with 0.5% BSA. Standards were run at noted concentrations by using purified Strep-tagged mouse sKL protein with 30 μl of control serum and 70 μl of assay buffer with 0.5% BSA added to ensure consistency. All samples and standards were run in triplicates. After 1 hour, plates were washed, and 150 ng of Fc-FGFR1c were incubated on plates in 100 μl of assay buffer with 0.5% BSA. After 1 hour, plates were washed and incubated with anti-human Fc-HRP at 1:10,000. Plates were washed as above and 100 μl of TMB substrate (E102, Bethyl Laboratories) was added for 15 to 20 minutes until positive wells developed a dark blue color. Reactions were stopped with ELISA stop solution (E115, Bethyl Laboratories) and analyzed using the Synergy HI plate reader (BioTek) at 450 nm wavelength. Amounts of sKL were calculated by taking the slope of the standard curve and calculating where the sample points fit in.

B1: sKL: recombinant soluble α-klotho ectodomain, mouse aa 35-982 and human aa 34-981, FLAG- or Strep/His-tagged, purified from HEK293 cells (protein)
chain: EPGDGAQTWARFSRPPAPEAAGLFQGTFPDGFLWAVGSAAYQTEGGWQQHGKGASIWDTFTHHPLAPPGDSRNASLPLGAPSPLQPATGDVASDSYNNVFRDTEALRELGVTHYRFSISWARVLPNGSAGVPNREGLRYYRRLLERLRELGVQPVVTLYHWDLPQRLQDAYGGWANRALADHFRDYAELCFRHFGGQVKYWITIDNPYVVAWHGYATGRLAPGIRGSPRLGYLVAHNLLLAHAKVWHLYNTSFRPTQGGQVSIALSSHWINPRRMTDHSIKECQKSLDFVLGWFAKPVFIDGDYPESMKNNLSSILPDFTESEKKFIKGTADFFALCFGPTLSFQLLDPHMKFRQLESPNLRQLLSWIDLEFNHPQIFIVENGWFVSGTTKRDDAKYMYYLKKFIMETLKAIKLDGVDVIGYTAWSLMDGFEWHRGYSIRRGLFYVDFLSQDKMLLPKSSALFYQKLIEKNGFPPLPENQPLEGTFPCDFAWGVVDNYIQVDTTLSQFTDLNVYLWDVHHSKRLIKVDGVVTKKRKSYCVDFAAIQPQIALLQEMHVTHFRFSLDWALILPLGNQSQVNHTILQYYRCMASELVRVNITPVVALWQPMAPNQGLPRLLARQGAWENPYTALAFAEYARLCFQELGHHVKLWITMNEPYTRNMTYSAGHNLLKAHALAWHVYNEKFRHAQNGKISIALQADWIEPACPFSQKDKEVAERVLEFDIGWLAEPIFGSGDYPWVMRDWLNQRNNFLLPYFTEDEKKLIQGTFDFLALSHYTTILVDSEKEDPIKYNDYLEVQEMTDITWLNSPSQVAVVPWGLRKVLNWLKFKYGDLPMYIISNGIDDGLHAEDDQLRVYYMQNYINEALKAHILDGINLCGYFAYSFNDRTAPRFGLYRYAADQFEPKASMKHYRKIIDSNGFPGPETLERFCPEEFTVCTECSFFHTRKS
modifications: left off: small tags and cut ends
notes: recombinant soluble α-klotho ectodomain, mouse aa 35-982 and human aa 34-981, FLAG- or Strep/His-tagged, purified from HEK293 cells
- binding of FGFR1c to FGF2 in the presence of sKL (FGF2 binding to FGFR1c): reduced; also recorded: this effect did not occur in the presence of sKL
- binding of FGFR1c to FGF2 in the presence of sKL (FGF2 binding to FGFR1c; listed as FLAG-sKL): significantly reduced
- binding of FGFR1c to FGF8b in the presence of sKL (FGF8b binding to FGFR1c): reduced the binding
- time postinjection from which sKL could no longer be detected [1]: ≥ 3 h
- time post-injection after which sKL levels were reduced by about half ([1]; earlier time points): approximately 10 minutes
- half-life in the circulation ([1]; serum, listed as recombinant sKL protein): approximately 10 minutes
- serum sKL level at the 15-minute time point ([1]; versus vehicle): high levels of sKL were detected
